Legend:
[1] = tested on: BXPC3-luc cells; experiment: Antibody-dependent cellular cytotoxicity (ADCC) luciferase assay with human PBMC; type: cell-based; conditions: 24 h
Procedure: (FIGS. 5A and 5B) The mAb ability to degrade HER3 after cell treatment was determined as follows. N87 cells were treated for 3 h at 37° C. with 10 μg/ml mAb. After cell lysis and protein extraction, the samples were subjected to immunoblotting with the indicated Ab. (FIG. 5C) The experiment shown in FIG. 5A was performed on 6 other cancer cell lines. (FIG. 5D) The mAb capacity to induce ADCC is reported. BXPC3-luc cells were incubated with the indicated mAbs and secondarily with human PBMC cells for 24 h. Cell killing was detected by measuring the luminescence after final addition of luciferine. *** […], ANOVA and post hoc tests.
ADCC was evaluated with a luciferase-activity assay. Using 96-well white plates, BXPC3-luc (4,000 cells/well) were pre-incubated for 30 min with the indicated antibodies. Ficoll-purified human peripheral blood mononuclear cells (PBMCs) from buffy coat were then added at a 10:1 effector to target cell ratio (E:T). […] Bioluminescence was determined using the Wallac Trilux 1450 Microbeta liquid scintillation and luminescence counter (Perkin-Elmer, MA). Percentage of cellular cytotoxicity was calculated using the following formula: percentage of specific lysis=[bioluminescence in experimental point−basal bioluminescence]/[bioluminescence in total lysis−basal bioluminescence]×100. […]

[2] = molecular target: denatured form of HER3 (Homo sapiens, UniProt P21860); experiment: Western blot detection of HER3 in T47D cell lysate (mAb as primary Ab); type: binding
Procedure: FIGS. 1A-E show hybridoma Screening and mAb Isotyping. (FIG. 1A) Mice were immunized with recombinant IgB3. (FIG. 1B) The hybridoma supernatant screening using ELISA, was performed on 96 well-plate coated with IgB3 (1 μg/ml) or with a human IgG. The plates were blocked with PBS-1% BSA and incubated for 1 h with hybridoma supernatants, followed by a second incubation for 1 h with HRP-labeled anti-mouse IgG and subsequently detected by 2,2′-azino-bis (3-ethylbenzothiazoline-6-sulfonic acid) addition. The OD at 415 nm was then measured using an ELISA microplate reader. (FIG. 1C) The second step of the screening was performed by immunoprecipitation (IP). Anti-mouse IgG beads were incubated first with the hybridoma supernatant and subsequently with total cell lysate from HER3-expressing T47D cells. (FIG. 1D) The mAbs directed to HER3 were isotyped using ELISA. […] (FIG. 1E) Finally the ability of the mAbs to detect HER3, used as primary Ab in a Western Blot experiment, was determined on cell lysate from T47D cells.
Cells were grown under specified conditions or treated as indicated. […] Antibody binding to membrane blots was detected using horseradish peroxidase-secondary antibodies (Jackson ImmunoResearch Laboratories), followed by treatment with ECL Western blotting detection reagents (GE Healthcare). […]

denatured form of HER3, sequence (P21860 20-1342): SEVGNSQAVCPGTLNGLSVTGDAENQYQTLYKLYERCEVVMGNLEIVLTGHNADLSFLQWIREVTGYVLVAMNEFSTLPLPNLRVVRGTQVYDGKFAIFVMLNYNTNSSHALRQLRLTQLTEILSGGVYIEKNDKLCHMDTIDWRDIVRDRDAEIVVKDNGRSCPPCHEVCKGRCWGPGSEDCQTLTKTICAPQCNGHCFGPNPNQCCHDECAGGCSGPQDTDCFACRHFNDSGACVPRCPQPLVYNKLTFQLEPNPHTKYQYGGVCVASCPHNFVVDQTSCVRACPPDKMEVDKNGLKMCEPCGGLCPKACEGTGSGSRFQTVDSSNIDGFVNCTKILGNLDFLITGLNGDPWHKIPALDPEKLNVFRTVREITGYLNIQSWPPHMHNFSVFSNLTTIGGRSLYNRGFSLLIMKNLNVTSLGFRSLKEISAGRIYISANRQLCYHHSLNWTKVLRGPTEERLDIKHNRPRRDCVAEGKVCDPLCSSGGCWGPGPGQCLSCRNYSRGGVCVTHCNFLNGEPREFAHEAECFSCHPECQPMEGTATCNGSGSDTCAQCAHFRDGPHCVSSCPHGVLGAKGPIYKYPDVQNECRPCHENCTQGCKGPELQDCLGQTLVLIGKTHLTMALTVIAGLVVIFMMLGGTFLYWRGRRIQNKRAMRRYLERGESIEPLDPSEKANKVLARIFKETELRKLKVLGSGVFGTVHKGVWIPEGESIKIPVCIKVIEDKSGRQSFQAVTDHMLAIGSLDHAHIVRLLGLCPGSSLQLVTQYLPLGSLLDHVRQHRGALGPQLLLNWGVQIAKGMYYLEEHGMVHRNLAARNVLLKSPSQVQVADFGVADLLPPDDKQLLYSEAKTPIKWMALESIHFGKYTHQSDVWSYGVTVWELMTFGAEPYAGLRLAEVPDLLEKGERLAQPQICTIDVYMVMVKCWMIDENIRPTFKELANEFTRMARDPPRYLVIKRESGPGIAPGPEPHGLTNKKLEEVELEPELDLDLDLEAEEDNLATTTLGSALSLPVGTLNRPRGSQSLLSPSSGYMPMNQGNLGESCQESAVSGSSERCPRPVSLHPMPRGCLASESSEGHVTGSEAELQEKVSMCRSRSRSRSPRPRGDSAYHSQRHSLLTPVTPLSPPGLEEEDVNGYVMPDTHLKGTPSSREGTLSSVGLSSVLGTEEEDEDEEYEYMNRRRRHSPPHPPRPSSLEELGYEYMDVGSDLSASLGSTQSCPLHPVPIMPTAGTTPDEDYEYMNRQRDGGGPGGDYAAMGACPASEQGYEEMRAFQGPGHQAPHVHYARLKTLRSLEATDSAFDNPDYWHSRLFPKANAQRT

B1: NG83: anti-HER3 mAb; light chain CDRs SEQ ID NOs: 7-9, heavy chain CDRs 10-12 (antibody, V domains shown)
VH: QIQLVQSGPELKKRGETVKISCKASGYTFTNYGMNWVRQAPGKGLKCMGWINTYAGEPTYADDFKGRFAFSLDSSASTAYLQINNLKNEDMATYFCARGGITGAMDYWGQGTSVTVSS
VL: DVVMTQKTSSLSTSLGDRVTISCRASQDIRNYLNWYQQKPDGTVKLLIYYTSRLHSGVPSRFSGSGSGTDYSLTISDLEQEDIATYFCQQGNTLPWTFGGGTKLAIK
modifications: VH chain of NG83 polypeptide; VL chain of NG83 polypeptide
induction of ADCC [1]: strongly or moderately induced ADCC | recognition of HER3 in western blotting [2]: able to recognize the denatured form of HER3

— patent US10526416B2, “Anti-HER3 antibodies and uses of same” (Yeda Research and Development Co. Ltd., priority 2014, dated 2020)
